According to patent US9221871 (NEW YORK UNIVERSITY, dated 2015):

Molecular target: T1, His-tagged human Bcl-xL (human, UniProt Q07817 1-212)
T1 construct: Bought protein; also called Hiss-tagged human Bcl-xL; not shown: His tag
Assay: fluorescence polarization competition against fl-Bak, Kd by regression analysis
Description: The anisotropy experiments were performed with a DTX 880 Multimode Detector (Beckman) at 4° C., with excitation and emission wavelengths of 485 and 525 nm, respectively.

T1 sequence (Q07817 1-212): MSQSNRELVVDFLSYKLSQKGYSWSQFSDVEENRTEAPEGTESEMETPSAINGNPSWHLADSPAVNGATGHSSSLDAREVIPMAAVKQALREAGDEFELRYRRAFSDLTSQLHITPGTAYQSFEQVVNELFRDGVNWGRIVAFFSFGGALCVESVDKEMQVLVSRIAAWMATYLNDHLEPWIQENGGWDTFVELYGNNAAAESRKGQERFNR

B1: artificial Bak BH3 α-helix 10a (hydrogen bond surrogate, HBS) (peptide)
chain: QVGRQLAIIGDDINR
modifications: not fully specified; N-terminal Gly-72 replaced by a 4-pentenoic acid residue (alkene-bearing glycine mimic); Gly-75 is N-allyl-glycine; the two olefins are joined by ring-closing metathesis (carbon-carbon hydrogen bond surrogate, mixture of cis and trans alkene isomers); C-terminal amide
Kd: 325 nM
